How the values were obtained:
[1] = molecular target: T1, Flag-RIG-I (Homo sapiens, UniProt O95786 O95786:1-925); assay: pulldown; three clones; conditions: tags: FLAG, from 293T cells
T1 sequence: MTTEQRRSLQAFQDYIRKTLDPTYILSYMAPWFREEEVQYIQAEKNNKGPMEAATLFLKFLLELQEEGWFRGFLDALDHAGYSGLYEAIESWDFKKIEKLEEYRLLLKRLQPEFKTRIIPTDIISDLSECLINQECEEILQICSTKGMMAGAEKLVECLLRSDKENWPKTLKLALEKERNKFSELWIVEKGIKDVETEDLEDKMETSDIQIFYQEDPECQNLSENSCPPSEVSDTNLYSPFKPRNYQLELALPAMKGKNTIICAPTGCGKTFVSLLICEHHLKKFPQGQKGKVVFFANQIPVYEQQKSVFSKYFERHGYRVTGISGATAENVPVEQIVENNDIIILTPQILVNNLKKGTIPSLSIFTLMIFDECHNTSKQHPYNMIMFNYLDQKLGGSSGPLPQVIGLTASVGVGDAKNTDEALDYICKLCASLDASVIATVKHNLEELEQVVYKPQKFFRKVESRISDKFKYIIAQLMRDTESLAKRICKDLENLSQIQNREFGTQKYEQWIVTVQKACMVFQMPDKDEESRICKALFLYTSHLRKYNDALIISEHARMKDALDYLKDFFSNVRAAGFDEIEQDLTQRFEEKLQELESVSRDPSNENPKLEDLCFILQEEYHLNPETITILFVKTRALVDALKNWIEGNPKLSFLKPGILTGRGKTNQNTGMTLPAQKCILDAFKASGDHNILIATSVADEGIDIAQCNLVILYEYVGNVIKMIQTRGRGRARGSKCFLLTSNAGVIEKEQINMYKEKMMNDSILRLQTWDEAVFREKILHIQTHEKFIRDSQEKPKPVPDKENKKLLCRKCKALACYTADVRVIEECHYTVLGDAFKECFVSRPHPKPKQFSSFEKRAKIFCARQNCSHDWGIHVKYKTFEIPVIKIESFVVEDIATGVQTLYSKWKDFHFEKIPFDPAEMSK

[2] = molecular target: T1, Flag-RIG-I; assay: pulldown; one clone; conditions: tags: FLAG, from 293T cells
[3] = molecular target: T1, Flag-RIG-I; assay: pulldown; six clones isolated; partial clones of the full fragment; conditions: tags: FLAG, from 293T cells
[4] = molecular target: T1, Flag-RIG-I; assay: pulldown; two clones; conditions: tags: FLAG, from 293T cells
[5] = molecular target: T2, N-RIG (RIG-I N-terminal polypeptide) (UniProt O95786 O95786:1-228); assay: EMSA; N-terminal polypeptide control; conditions: broken stem-loop with 5' and 3' ss overhangs
T2 sequence: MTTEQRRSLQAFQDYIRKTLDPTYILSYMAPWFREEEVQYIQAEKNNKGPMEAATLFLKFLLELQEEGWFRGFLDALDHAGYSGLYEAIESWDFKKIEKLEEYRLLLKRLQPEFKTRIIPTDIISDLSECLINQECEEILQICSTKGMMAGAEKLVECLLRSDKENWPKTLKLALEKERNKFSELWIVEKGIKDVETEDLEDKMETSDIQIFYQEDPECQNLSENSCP

[6] = molecular target: T1, Flag-RIG-I; assay: pulldown; eight clones; conditions: tags: FLAG, from 293T cells; broken stem-loop with 5' and 3' ss overhangs
[7] = molecular target: T3, RIG-I full-length (Homo sapiens, UniProt O95786 O95786:1-925); assay: EMSA; stable complex; 1.5 mM MgCl2, 37 C; conditions: tags: recombinant full-length (Saito et al. 2007, 2008); broken stem-loop with 5' and 3' ss overhangs
T3 sequence: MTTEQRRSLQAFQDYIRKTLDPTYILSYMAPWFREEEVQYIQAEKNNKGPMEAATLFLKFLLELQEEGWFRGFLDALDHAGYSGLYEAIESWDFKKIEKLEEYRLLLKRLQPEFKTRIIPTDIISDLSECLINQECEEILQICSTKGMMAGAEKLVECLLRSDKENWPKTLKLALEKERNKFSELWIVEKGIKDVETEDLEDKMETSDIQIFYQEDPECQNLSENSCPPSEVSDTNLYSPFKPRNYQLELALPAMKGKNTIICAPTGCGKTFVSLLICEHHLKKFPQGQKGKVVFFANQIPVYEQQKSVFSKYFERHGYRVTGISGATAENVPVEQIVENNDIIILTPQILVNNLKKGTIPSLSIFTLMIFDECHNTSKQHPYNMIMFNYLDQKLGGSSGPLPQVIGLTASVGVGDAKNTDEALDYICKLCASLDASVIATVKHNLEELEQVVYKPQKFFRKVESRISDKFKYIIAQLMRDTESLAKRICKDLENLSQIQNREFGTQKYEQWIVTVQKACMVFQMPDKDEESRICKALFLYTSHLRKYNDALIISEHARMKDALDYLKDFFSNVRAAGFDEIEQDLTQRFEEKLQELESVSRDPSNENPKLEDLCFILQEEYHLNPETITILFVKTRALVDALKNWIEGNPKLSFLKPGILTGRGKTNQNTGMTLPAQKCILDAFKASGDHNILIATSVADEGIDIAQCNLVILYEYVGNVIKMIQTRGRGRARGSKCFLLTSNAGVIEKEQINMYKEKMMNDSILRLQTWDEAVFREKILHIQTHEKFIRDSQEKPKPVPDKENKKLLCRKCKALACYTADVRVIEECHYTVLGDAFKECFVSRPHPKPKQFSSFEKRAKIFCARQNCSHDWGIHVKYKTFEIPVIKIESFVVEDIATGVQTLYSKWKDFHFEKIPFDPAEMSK

[8] = molecular target: T3, RIG-I full-length; assay: EMSA; stable complex; 10 pmol protein, 6 pmol RNA, 20 mM Tris pH 8.0, 1.5 mM MgCl2, 37 C; conditions: tags: recombinant full-length (Saito et al. 2007, 2008); broken stem-loop with 5' and 3' ss overhangs

UGUUGCUGCAACGCUGGGCUUUGGUGCUU (ssRNA) [svRNA2]: binds [1].

B1: svRNA8 (ssRNA)
RNA: GCUUGGGCCAGCCGACGGAAUGGUCUCCAAGGGGUGGAGGUUGCUGGCGCCCAUCACGGCGUACGCCCAGCAGACGAGAGGCCUCCUAGGGUGUAUA
B1: binds [2].

B2: svRNA9 (ssRNA)
RNA: GCUUGGGCCAGCCGACGGAAUGGUCUCCAAGGGGUGGAGGUUGCUGGCGCCCAUCACGGCGUACGCCCAGCAGACGAGAGGCCUCCUAGGGUGUAUA
B2: binds [2].

UGUCCACCGGCCUCAUCCACCUCCACCAGAACAUU (ssRNA) [svRNA1]: binds [3].

B3: svRNA6 (ssRNA)
RNA: ACGGGUCAUCGCAUGGCAUGGGAUAUGAUGAUGAACUGGUCCCCUACGGCAGCGUUGGUGGUAGCUCAGCUGCUCCGGAUCCCACAAGCCAUCAUGGACAUGAUCGCUGGUGCUCACUGGGGAGUCCUGGCGGGCAUAGCGU
B3: binds [4].

B4: svRNA3 (5'-OH/3'-p) (ssRNA)
RNA: AAGAACAAAGCUCAAACUCACUCCAAUAGCGGCCGCUGGCCGGCUGGACUUGUCCGGUUGGUUCACGGCUGGCUACAGCGGGGGAGACAU
modifications: 5'-OH, 3'-phosphate
B4: no binding [5]; binds [6]; binds [7].

B5: svRNA12 (ssRNA)
RNA: UGCACCGCCAACCAUGACUCCCCUGACGCCGAGCUCAUAGAGGCUAACCUCCUGUGGAGGCAGGAGAUGGGCGGCAACAUCACCAGGGUUGAGUCAGAGAACAAAGUGGUGAUUCUGGACUCCUUCGAUCCGCUUGUGGCAGAGGAGGAUGAGCGGGAGGUCUCCGUACCUGCAGAAAUUCUGCGGAAGUCUCGGAGAUUCGCCCGGGCCCUGCCCGUCUGGGCGCGGCCGGACUACAACCCCCCGCUA
B5: binds [4].

B6: svRNA7 (ssRNA)
RNA: GGUCUCCUUACACCAGGCGCCAAGCAGAACAUCCAACUGAUCAACACCAACGGCAGUUGGCACAUCAAUAGCACGGCCUUGAAUUGCAAUGAAAGCCUUAACACCGGCUGGUUAGCAGGGCUCUUCUAUCAACACAAAUUCAACUCUUCAGGCUGUCCUGAGAGGUUGGCCAGCUGCCGACGCCUUACCGAUUUUGCCCAGGGCUGGGGUCCUA
B6: binds [4].

B7: svRNA11 (ssRNA)
RNA: ACAGACUGGGCGCUGUUCAGAAUGAAGUCACCCUGACGCACCCAAUCACCAAAUACAUCAUGACAUGCAUGUCGGCCGACCUGGAGAUCGUCACGAGCACCUGGGUGCUCGUUGGCGGCGUCCUGGCUGCUCUGGCCGCGUAUUGCCUGUCAACAGGCUGCGUGGUCAUAGUGGGCAGGAUU
B7: binds [2].

B8: svRNA13 (ssRNA)
RNA: CCACCUCCACGGUCCCCUCCUGUGCCUCCGCCUCGGAAAAAGCGUACGGUGGUCCUCACCGAAUCAACCCUA
B8: binds [2].

B9: svRNA10 (ssRNA)
RNA: ACCUGGUCACGAGGCACGCCGAUGUCAUUCCCGUGCGCCGGCGAGGUGAUAGCAGGGGUAGCCUGCUUUCGCCCCGGCCCAUUUCCUACUUGAAAGGCUCCUCGGGGGGUCCGCUGUUGUGCCCCGCGGGACACGCCGUGGGCCUAUUCAGGGCCGCGGUGUGCACCCGUGGAGUGGCU
B9: binds [2].

B10: svRNA14 (ssRNA)
RNA: CCCGUGACCCUACAACCCCCCUCGCGAGAGCCGCGUGGGAGACAGCAAGACACACUCCAGUCAAUUCCUGGCUAGGCAACAU
B10: binds [2].

B11: svRNA15 (ssRNA)
RNA: CCCGUGACCCUACAACCCCCCUCGCGAGAGCCGCGUGGGAGACAGCAAGACACACUCCAGUCAAUUCCUGGCUAGGCAACAU
B11: binds [4].

B12: svRNA3 (5'-p3/3'-OH) (ssRNA)
RNA: AAGAACAAAGCUCAAACUCACUCCAAUAGCGGCCGCUGGCCGGCUGGACUUGUCCGGUUGGUUCACGGCUGGCUACAGCGGGGGAGACAUUUA
modifications: 5'-triphosphate, 3'-OH
B12: no binding [5]; binds [8].

ACCUUCUCUCCCAGGCGCCACUGGACGACGCAAGACUGCAAU (ssRNA) [svRNA5]: binds [2].
